According to article PMC2924314, “Peptides derived from the HIV-1 integrase promote HIV-1 infection and multi-integration of viral cDNA in LEDGF/p75-knockdown cells” (Virology Journal, 2010):

Molecular target: INS (IN derived-integrase stimulatory peptide) (HIV-1)
Experiment: ELISA

For “Lens Epithelium Derived Growth Factor p75 (LEDGF/p75), histidine-tagged recombinant, O75475 1-530 (natural protein; other documents disagree on this pair)”, the Kd was 2.2 µM.
